Key:
OXA-405 β-lactamase [1] = molecular target: T1, OXA-405 β-lactamase (Serratia marcescens, UniProt A0A0F6P2I5); assay: IC50 with purified enzyme, […] benzylpenicillin as reporter substrate, […] min preincubation; type: biochemical
T1 construct: gene blaOXA-405

[2] = system: CO/N=C(\C(=O)N[C@@H]1C(=O)N2C(C(=O)O)=C(COC(C)=O)CS[C@H]12)c1csc(N)n1; assay: steady-state hydrolysis kinetics (Km) with purified enzyme; type: biochemical, Serratia marcescens
[3] = system: C[C@@H](O)[C@H]1C(=O)N2C(C(=O)O)=C(S[C@@H]3CN[C@H](C(=O)Nc4cccc(C(=O)O)c4)C3)[C@H](C)[C@H]12; assay: as above; type: biochemical, Serratia marcescens
[4] = system: CC1(C)S[C@@H]2[C@H](NC(=O)Cc3ccccc3)C(=O)N2[C@H]1C(=O)O; assay: as above; type: biochemical, Serratia marcescens
[5] = system: C[C@@H](O)[C@H]1C(=O)N2C(C(=O)O)=C(SCCN=CN)C[C@H]12; assay: as above; type: biochemical, Serratia marcescens
[6] = system: CC(=O)OCC1=C(C(=O)O)N2C(=O)[C@@H](NC(=O)Cc3cccs3)[C@H]2SC1; assay: as above; type: biochemical, Serratia marcescens
[7] = system: CC1(C)S[C@@H]2[C@H](NC(=O)[C@H](N)c3ccccc3)C(=O)N2[C@H]1C(=O)O; assay: as above; type: biochemical, Serratia marcescens
[8] = system: Cc1onc(-c2ccccc2)c1C(=O)N[C@@H]1C(=O)N2[C@@H]1SC(C)(C)[C@@H]2C(=O)O; assay: as above; type: biochemical, Serratia marcescens
OXA-405 β-lactamase [9] = molecular target: T1, OXA-405 β-lactamase; assay: as above; type: biochemical

T1 sequence (A0A0F6P2I5 23-261 limits assumed): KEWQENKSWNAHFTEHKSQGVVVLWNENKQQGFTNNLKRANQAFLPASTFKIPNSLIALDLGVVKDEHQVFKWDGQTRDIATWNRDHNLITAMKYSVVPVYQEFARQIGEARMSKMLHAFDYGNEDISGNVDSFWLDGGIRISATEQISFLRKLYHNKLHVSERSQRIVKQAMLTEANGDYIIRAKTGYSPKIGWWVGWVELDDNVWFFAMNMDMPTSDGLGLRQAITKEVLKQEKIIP

C[C@]1(Cn2ccnn2)[C@H](C(=O)O)N2C(=O)C[C@H]2S1(=O)=O [Tazobactam]
IC50 (OXA-405 β-lactamase [1]): 1.8 µM

OXA-405 β-lactamase (Serratia marcescens)
Km [2]: 369 µM
kcat [2]: 9.7 s⁻¹
kcat/Km [2]: 26000 M⁻¹ s⁻¹
Km [3]: 88 µM
kcat [3]: 0.04 s⁻¹
kcat/Km [3]: 400 M⁻¹ s⁻¹
Km [4]: 18 µM
kcat [4]: 12 s⁻¹
kcat/Km [4]: 667000 M⁻¹ s⁻¹
Km [5]: 532 µM
kcat [5]: 0.1 s⁻¹
kcat/Km [5]: 200 M⁻¹ s⁻¹
Km [6]: 18 µM
kcat [6]: 8 s⁻¹
kcat/Km [6]: 444000 M⁻¹ s⁻¹
Km [7]: 212 µM
kcat [7]: 29 s⁻¹
kcat/Km [7]: 137000 M⁻¹ s⁻¹
Km [8]: 69 µM
kcat [8]: 19 s⁻¹
kcat/Km [8]: 275000 M⁻¹ s⁻¹

CC(C)(O/N=C(\C(=O)N[C@@H]1C(=O)N2C(C(=O)[O-])=C(C[n+]3ccccc3)CS[C@H]12)c1csc(N)n1)C(=O)O [Ceftazidime]
Km (OXA-405 β-lactamase [9]): > 1000 µM

O=C(O)[C@H]1/C(=C/CO)O[C@@H]2CC(=O)N21 [Clavulanic acid]
IC50 (OXA-405 β-lactamase [1]): 6 µM
